Tests used:
Assay in all cases: cell-based or functional assay
[1] = molecular target: T1, endogenous GLP-1 receptor of a murine insulinoma cell line (murine, UniProt O35659 22-463)
T1 sequence (looked up): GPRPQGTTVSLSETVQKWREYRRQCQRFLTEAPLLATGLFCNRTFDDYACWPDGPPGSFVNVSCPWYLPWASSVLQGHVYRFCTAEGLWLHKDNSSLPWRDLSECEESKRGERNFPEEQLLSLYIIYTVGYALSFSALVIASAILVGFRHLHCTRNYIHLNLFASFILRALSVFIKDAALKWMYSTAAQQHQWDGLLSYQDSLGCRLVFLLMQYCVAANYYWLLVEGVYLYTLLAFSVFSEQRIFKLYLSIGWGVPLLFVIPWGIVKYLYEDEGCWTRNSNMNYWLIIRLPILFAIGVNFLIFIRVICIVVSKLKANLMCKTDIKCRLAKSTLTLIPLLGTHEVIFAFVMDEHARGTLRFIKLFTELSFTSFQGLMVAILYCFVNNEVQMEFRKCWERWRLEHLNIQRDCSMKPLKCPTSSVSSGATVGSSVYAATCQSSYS

[2] = molecular target: human glucagon receptor (Glucagon-R) (human, UniProt P47871 26-477)
Chain of human glucagon receptor (Glucagon-R) (P47871 26-477): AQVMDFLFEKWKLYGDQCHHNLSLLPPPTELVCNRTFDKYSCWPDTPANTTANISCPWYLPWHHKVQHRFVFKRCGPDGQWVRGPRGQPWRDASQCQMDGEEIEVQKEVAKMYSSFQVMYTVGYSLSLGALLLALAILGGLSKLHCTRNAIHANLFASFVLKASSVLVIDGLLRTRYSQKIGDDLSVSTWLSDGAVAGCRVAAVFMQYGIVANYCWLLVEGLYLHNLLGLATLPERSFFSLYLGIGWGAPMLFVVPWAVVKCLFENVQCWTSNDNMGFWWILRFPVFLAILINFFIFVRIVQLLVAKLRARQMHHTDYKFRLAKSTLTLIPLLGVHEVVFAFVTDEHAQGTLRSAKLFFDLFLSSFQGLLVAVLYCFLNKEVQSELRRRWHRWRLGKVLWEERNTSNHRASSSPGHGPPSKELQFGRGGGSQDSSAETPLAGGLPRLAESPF

[3] = molecular target: human glucagon-like peptide 1 receptor (GLP-1R) (human, UniProt P43220 24-463)
[4] = molecular target: endogenous glucagon receptor of primary rat hepatocytes (rat, UniProt P30082 27-485)
Chain of endogenous glucagon receptor of primary rat hepatocytes (P30082 27-485): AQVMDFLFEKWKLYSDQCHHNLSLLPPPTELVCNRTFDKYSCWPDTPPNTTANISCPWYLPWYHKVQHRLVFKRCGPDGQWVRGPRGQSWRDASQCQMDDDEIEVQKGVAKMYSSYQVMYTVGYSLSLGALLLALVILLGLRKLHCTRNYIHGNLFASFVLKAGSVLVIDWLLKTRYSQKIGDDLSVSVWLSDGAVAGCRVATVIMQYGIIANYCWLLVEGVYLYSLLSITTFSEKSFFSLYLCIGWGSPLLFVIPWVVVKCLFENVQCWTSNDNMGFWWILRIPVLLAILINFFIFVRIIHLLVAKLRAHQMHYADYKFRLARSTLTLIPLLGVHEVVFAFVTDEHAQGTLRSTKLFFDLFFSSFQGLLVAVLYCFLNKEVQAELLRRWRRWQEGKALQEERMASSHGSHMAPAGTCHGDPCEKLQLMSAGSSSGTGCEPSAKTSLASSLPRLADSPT

B1: Compound 1: H-H-Aib-QGTFTSDYSKYLDERAAKDFIEWLE-K([17-Carboxy-heptadecanoyl]-isoGlu-GSGSGG)-A-NH2 (peptide)
peptide: HAQGTFTSDYSKYLDERAAKDFIEWLEKA
modifications: Aib (alpha-aminoisobutyric acid) at position 2; Lys 28 conjugated via its epsilon amino group to [17-Carboxy-heptadecanoyl]-isoGlu-GSGSGG; C-terminal amide (NH2); free N-terminus (R1 = H)
EC50 [nM] (cAMP in murine insulinoma cells) [1]: 0.54 nM
EC50 hGCGR CHO-K1 [nM] (cAMP, AlphaScreen) [2]: 3.6 nM
EC50 hGLP-1R CHO-K1 [nM] (cAMP, AlphaScreen) [3]: 0.48 nM
EC50 [nM] (inhibition of glycogen synthesis rate in primary rat hepatocytes) [4]: 5.6 nM

Reference: patent publication US20200087372A1 (ZEALAND PHARMA A S, published 2020)
